Results as given in the supplement of paper PMC12764529.
± gives the half width of the 95% confidence interval.

Legend:
[1] = folding stability dG unfold (combined trypsin and chymotrypsin); higher = more stable
Procedure, shortened: (§1)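 Only designs with AlphaFold2 dimer inter-PAE above 15 were retained; each was a mini-protein under 80 residues with no cysteine, in a PA-tagged cDNA display construct. After digestion with trypsin and chymotrypsin and sequencing, K50 was inferred by Bayesian fitting of counts, and unfolding free energy was derived per protease or combined against a sequence-predicted unfolded-state K50 and a shared folded-state K50.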

[2] = folding stability dG unfold from trypsin proteolysis; higher = more stable
Procedure, shortened: as §1

[3] = folding stability dG unfold from chymotrypsin proteolysis; higher = more stable
Procedure, shortened: as §1

Sequence	folding stability dG unfold [1]	folding stability dG unfold [2]	folding stability dG unfold [3]
SAGMVTTTTVTFPNGATMTVTTHSSGIITIEATSEEDARAFLEAQGLPLTSREVLPDGTYRFTAVVPPSAGG [r19_257_JUSTAS]	4.52 ± 0.062 kcal/mol	4.61 ± 0.13 kcal/mol	4.53 ± 0.057 kcal/mol
SAGGSAGGSAGMTLTVTSPSSDTPIGTIELPSSLSEEELEAAVEAVRAALPPDVTVEVTGSAGGSAGGSAGG [r11_1081_JUSTAS]	1.13 ± 0.093 kcal/mol	1.41 ± 0.084 kcal/mol	0.954 ± 0.046 kcal/mol
SAGGSAGGSAKRKVIEVDSLEEIKKAIEEAKEGEVVEIVVRDPETNETYTLKVVDGKIVLIPSAGGSAGGSA [r18_407_TrROS_Hall]	2.27 ± 0.049 kcal/mol	1.32 ± 0.039 kcal/mol	2.664 ± 0.014 kcal/mol
SAGGSAGGSASVTVVPSPGPTTTVVTFSPDDTVTVTTHTVDPSAATSTPTTTTVSLSDPAAASAGGSAGGSA [r18_503_JUSTAS]	1.73 ± 0.03 kcal/mol	2.08 ± 0.044 kcal/mol	1.44 ± 0.015 kcal/mol
SAGGSAGGSAGGPPGAVERGYLVVRFRVYRPEPAEPVGELTVYVRVPPPEPEEDGSFRFHSAGGSAGGSAGG [r7_959_TrMRF]	2.24 ± 0.086 kcal/mol	1.98 ± 0.025 kcal/mol	2.39 ± 0.068 kcal/mol
SAGGMTVTVKVKPDEYVIVEIENPVLDSTLTYVVPFNSPMTVTLPLPPDYKVKKITVVSPKKVSKELLSAGG [r13_119_JUSTAS]	1.78 ± 0.059 kcal/mol	1.22 ± 0.013 kcal/mol	2.05 ± 0.059 kcal/mol
SEAEIKIKEVDENGYLVLEIKVPKEEVEKLREKLKELFPNAEIVEVKYDEETGEVTIIVRLPDGKLYEFKSA [r9_1164_TrROS_Hall]	1.06 ± 0.13 kcal/mol	1.05 ± 0.076 kcal/mol	1.05 ± 0.099 kcal/mol
SAGGSAGGSAGGKWHLITFTITMEMYVMKFDPENGKWKPVDPIPMEIQITFLIPPGDPISAGGSAGGSAGGS [r10_610_TrROS]	4.65 ± 0.47 kcal/mol	3.77 ± 0.25 kcal/mol	5.08 ± 0.2 kcal/mol
SALLEPLLLEVYIPATGEVITVPAKSLEEAEAIIAEVRADPTVASVRITLPDGTVVEVSFNVSPAAYLKSAG [r14_747_JUSTAS]	0.304 ± 0.2 kcal/mol	0.42 ± 0.12 kcal/mol	0.13 ± 0.16 kcal/mol
SAGGSAGGSAGGSWKIDKFTSIERTDGGYVIRIRMENPDGPPMKQTFYFPPGDDELANISAGGSAGGSAGGS [r4_253_TrROS]	0.344 ± 0.27 kcal/mol	0.285 ± 0.21 kcal/mol	0.242 ± 0.3 kcal/mol
SAEEVEIEIEIVIKMSEEEAERLAKELAEELARELGAEIVDVEVEVVEVDGELYVRIRVKIRLPKEELESAG [r14_219_TrROS_Hall]	4.23 ± 0.14 kcal/mol	3.47 ± 0.098 kcal/mol	4.7 ± 0.17 kcal/mol
SAGGSAGGSAGGKKITIVMSAEEAEALAKALEDAGIDIDNLKIEVVKVEFPPALPAEDKSAGGSAGGSAGGS [r10_602_TrROS_Hall]	1.57 ± 0.074 kcal/mol	1.2 ± 0.029 kcal/mol	1.8 ± 0.051 kcal/mol
SAGGSAGGSAGGGIYEVDENGNPLPPRPYLVLKIGYEVGYLPDGGAGLSLNIEIYPVYDASAGGSAGGSAGG [r7_572_TrMRF]	3.79 ± 0.23 kcal/mol	3.18 ± 0.2 kcal/mol	4.25 ± 0.13 kcal/mol
SAGGMTYVLPNGERLLVRVSVRTEPRLDPDRPELVLEPRVEIELFAVSPDLTLRPVPEELARELFEKESAGG [r13_809_TrMRF]	1.21 ± 0.044 kcal/mol	0.891 ± 0.019 kcal/mol	1.33 ± 0.07 kcal/mol
SAGGSMPPIVASVVEVRFYRFEEEDRERLEAEVTLKLKDGSTATIRLEFPDLSEEELLKTVEETLLSAGGSA [r2_26_JUSTAS]	2.31 ± 0.043 kcal/mol	1.78 ± 0.042 kcal/mol	2.525 ± 0.022 kcal/mol
SAGGSAGGSPGTLIEVRFPDRIVRIYQLPPGVYRVEVYEPPYLVATIELPNVTAEEAARLALGSAGGSAGGS [r20_8_TrMRF]	2.72 ± 0.054 kcal/mol	1.61 ± 0.034 kcal/mol	3.071 ± 0.021 kcal/mol
SMTIEIEVDGKTVTVEIDPKTGKIKKVVVKDKETGEWKELSDEEIEKLLKELEDELREKREKLEKEGKEPSA [r9_368_TrROS_Hall]	2.53 ± 0.25 kcal/mol	2.32 ± 0.24 kcal/mol	2.5 ± 0.18 kcal/mol
SAGGSSSTPVSSSTFTTPDGVTVSVTTTLEPDASGNPYTVTTETFPDGTVTTTTYRNGETQTTTVASAGGSA [r2_182_JUSTAS]	1.34 ± 0.088 kcal/mol	1.28 ± 0.041 kcal/mol	1.33 ± 0.11 kcal/mol
SAGGSAGGSGSSTSANAGGIVTSSSTVPLPPDTRPVSVSTSTPSSKPVKTTVLPDKTVTTPLGSAGGSAGGS [r12_994_JUSTAS]	1.38 ± 0.048 kcal/mol	1.01 ± 0.035 kcal/mol	1.55 ± 0.028 kcal/mol
SAPKIEILEVDPNRVLIKIDATPEEIEKIVEEIKKKFPGVKVETEKLEGEKKYLIKVIPVPEVPEELKKSAG [r14_600_TrMRF]	1.1 ± 0.14 kcal/mol	0.0352 ± 0.067 kcal/mol	1.44 ± 0.016 kcal/mol
SAALAELLLNEGYEVRIEVEVREVRPRTLPGGGTTVELDITVRIELRPPPIPPPPLDPRLLRDEDGHLRSAG [r14_569_TrMRF]	2.15 ± 0.1 kcal/mol	2.35 ± 0.037 kcal/mol	1.95 ± 0.071 kcal/mol

Sequence	folding stability dG unfold [1]	folding stability dG unfold [2]	folding stability dG unfold [3]
SAGGSMKVKIEVEKTPKGYKVRITVEKDGKTYEFEFPEDMSLEEVLEKLKKELEKEGVEIEKIEIVSAGGSA [r2_497_TrROS_Hall]	4.43 ± 0.26 kcal/mol	3.15 ± 0.13 kcal/mol	4.58 ± 0.15 kcal/mol
SAGGSAGGSAGGGMVIVTREPENLTFTVYREDPSTGKLRRIGTFPVSPDELEKVLALLSSAGGSAGGSAGGS [r10_275_JUSTAS]	2.2 ± 0.079 kcal/mol	1.77 ± 0.053 kcal/mol	2.47 ± 0.074 kcal/mol
SAMLTILSVETHTLPNGEEIVTVTLKTPDLETLDALLAELGLTGTRDPDDPQVVTITTSREKVQEIKEKSAG [r14_777_JUSTAS]	4.57 ± 0.3 kcal/mol	3.34 ± 0.14 kcal/mol	4.71 ± 0.2 kcal/mol
SSPIMIKMKDPDDREKIEKAVEEINDETGMSIRPESVDPNGKYTFMINMPPEHQKKILKALREAGNIEIVSA [r9_472_TrROS]	0.874 ± 0.16 kcal/mol	0.289 ± 0.21 kcal/mol	1.1 ± 0.15 kcal/mol
SAGGSAGGSAGVPDNAKIRLAFEFDGYIVLIEATPGTGFIKNIDKVEVFPVIPNTGEVTGSAGGSAGGSAGG [r11_66_TrMRF]	1.79 ± 0.13 kcal/mol	1.53 ± 0.07 kcal/mol	1.85 ± 0.1 kcal/mol
SAGGSAGGSDVEVEEVDVEIEVNGKKFKVKIYRNKKDKNRYYIFFEDTGKVFEIDKNGNIRPLSAGGSAGGS [r12_580_TrROS_Hall]	3.21 ± 0.064 kcal/mol	2.74 ± 0.1 kcal/mol	3.49 ± 0.044 kcal/mol
SAGGSAGGSMSPEEARALAEALAEALGEPDVEVLEVVQTENPAADSTTVTVTIRLPDGSVRVLSAGGSAGGS [r12_508_JUSTAS]	1.63 ± 0.06 kcal/mol	1.63 ± 0.079 kcal/mol	1.481 ± 0.014 kcal/mol
SAGGSAGGGPPGTTTTTISTPDGPVTVTVSPTSVTVTRPGSNETVTSSGSPTTTLEEIAAEIAASAGGSAGG [r6_317_JUSTAS]	2.24 ± 0.11 kcal/mol	2.88 ± 0.14 kcal/mol	1.58 ± 0.052 kcal/mol
SAGGSAGGSKPTLTLEIVLPPEMTLEQLEELARALAEELGLDEVEVRVERRPDGYLRITITVKSAGGSAGGS [r20_208_TrROS_Hall]	3.59 ± 0.12 kcal/mol	3.63 ± 0.18 kcal/mol	3.45 ± 0.091 kcal/mol
SAGGSGMVITIPVELPTPRTLTFTFYPETGTATVEVSPGVPAAEVRATVEEVFAAHGLKLNPITLLSAGGSA [r2_497_JUSTAS]	1.39 ± 0.066 kcal/mol	0.995 ± 0.02 kcal/mol	1.61 ± 0.075 kcal/mol
SAGGYELELVFRFKLELKVGDGTLSFDLDLVIRIPLEPPAVPIGVEVKEDGSLVLTYPNGLKAEIPLSAGGS [r16_136_TrMRF]	3.93 ± 0.087 kcal/mol	3.32 ± 0.14 kcal/mol	4.21 ± 0.06 kcal/mol
SKAEIVEIKIEKVEKDGKKYYKVKIKVKTKDGKIKEIEITFPEGMSEEEIKKKIEELAKELGIEKVEIKPSA [r9_1203_TrROS_Hall]	4.53 ± 0.67 kcal/mol	3.76 ± 0.44 kcal/mol	4.7 ± 0.24 kcal/mol
SAGRLTTELGDVKAEVFRIPNLNLSLVVYEYPTSVRTLLATEHGDTVTIHPLTETPLPLPPLSDLKSLSAGG [r19_328_TrMRF]	0.0233 ± 0.1 kcal/mol	0.0381 ± 0.068 kcal/mol	-0.064 ± 0.11 kcal/mol
SARIRIMVPPDFIMVRTPKGKMRMVDDPEEIEEIIKDILPVPIEIEPLPPNSPKFQKMMEMMMREQNGPSAG [r14_235_TrROS]	0.0355 ± 0.18 kcal/mol	-0.264 ± 0.48 kcal/mol	0.158 ± 0.23 kcal/mol
SAGGSAGGMPAEWLDEIEAPPGNYRAELYKTEKEVRIIITLPNGEKLELTFEVKPDEEILVLPGSAGGSAGG [r6_379_TrMRF]	2.05 ± 0.097 kcal/mol	1.89 ± 0.057 kcal/mol	2.12 ± 0.17 kcal/mol
SKNYPIRISIFQRNPNGNPQTVTYPIPVDAAKELKDAGFEVKDVDPDSGMIMVKFPMPNYPVYIMISIEDSA [r9_5_TrROS]	2.98 ± 0.13 kcal/mol	2.75 ± 0.093 kcal/mol	3.12 ± 0.056 kcal/mol
SAGGGSYTIVVELGDKKVVFEIDKEEAVEEAVAKLPELGLEVEVLKKEKVLNEDGKPSVLVEVKVKPSAGGS [r8_336_TrMRF]	0.631 ± 0.1 kcal/mol	-0.663 ± 0.17 kcal/mol	1.12 ± 0.059 kcal/mol
SAGGSAGGEKPVVTRLELVETEEGLVRLRVELPDGELVEERRFPTLEEALAALPPGAKVEIVPLSAGGSAGG [r6_492_TrROS_Hall]	1.7 ± 0.032 kcal/mol	1.85 ± 0.032 kcal/mol	1.54 ± 0.01 kcal/mol
SAGGSAGGLEIAKELGFEKIEIEEVKENRVVLKLKDKNGKEYKIEFEFDPETGEIKILKIEPLPSAGGSAGG [r6_526_TrMRF]	4.12 ± 0.13 kcal/mol	3.1 ± 0.21 kcal/mol	4.19 ± 0.1 kcal/mol
SAGKKVRIWIVFDGDPEQAKYLAEEIAKELRQKDGHKNVDIEVIPPGQDMHQMMEWAEENNVDIVIMVSAGG [r19_89_TrROS]	3.59 ± 0.13 kcal/mol	2.68 ± 0.15 kcal/mol	3.85 ± 0.19 kcal/mol
SAGTIWIPVDELKELGIPPGDTAEEFKQQISDRLMEQGWTVKIPDIEVEPLDPNDGRVWVRINIEFKPPSAG [r5_23_TrROS]	0.94 ± 0.17 kcal/mol	1.26 ± 0.05 kcal/mol	0.42 ± 0.2 kcal/mol
